{"source": "paper PMC11662656", "about": "“Intrinsically disordered RNA-binding motifs cooperate to catalyze RNA folding and drive phase separation”", "key": {"[1]": {"target": "T1, MBP-Loc1p (Saccharomyces cerevisiae, UniProt P43586 1-204)", "assay": "competition; vs labeled TAR-57; 10-500x; EMSA: 20 mM HEPES pH 7.8, 200 mM NaCl, 2 mM MgCl2, 2 mM DTT, 4% glycerol, 25 C, 5 nM RNA, 100 ug/ml tRNA (omitted in competition); NMR: 20 mM Na phosphate pH 7.4, 50 mM NaCl, 278 K", "conditions": "protein: recombinant; tags: MBP"}, "[2]": {"target": "Loc1p (Saccharomyces cerevisiae, UniProt P43586 1-204)", "assay": "EMSA; nanomolar range; 100 ug/ml yeast tRNA; EMSA: 20 mM HEPES pH 7.8, 200 mM NaCl, 2 mM MgCl2, 2 mM DTT, 4% glycerol, 25 C, 5 nM RNA, 100 ug/ml tRNA (omitted in competition); NMR: 20 mM Na phosphate pH 7."}, "[3]": {"target": "T2, MBP-Loc1p (Saccharomyces cerevisiae, UniProt P43586 1-204)", "assay": "competition; vs labeled ASH1 E3; 10-500x; EMSA: 20 mM HEPES pH 7.8, 200 mM NaCl, 2 mM MgCl2, 2 mM DTT, 4% glycerol, 25 C, 5 nM RNA, 100 ug/ml tRNA (omitted in competition); NMR: 20 mM Na phosphate pH 7."}, "[4]": {"target": "T2, MBP-Loc1p", "assay": "competition; vs labeled TAR-57; 10-500x; EMSA: 20 mM HEPES pH 7.8, 200 mM NaCl, 2 mM MgCl2, 2 mM DTT, 4% glycerol, 25 C, 5 nM RNA, 100 ug/ml tRNA (omitted in competition); NMR: 20 mM Na phosphate pH 7."}, "[5]": {"target": "T2, MBP-Loc1p", "assay": "EMSA; 100 nM DNA; affinity similar to ssRNA; EMSA: 20 mM HEPES pH 7.8, 200 mM NaCl, 2 mM MgCl2, 2 mM DTT, 4% glycerol, 25 C, 5 nM RNA, 100 ug/ml tRNA (omitted in competition); NMR: 20 mM Na phosphate pH 7."}, "[6]": {"target": "T3, Loc1p array peptide A7 (Saccharomyces cerevisiae, UniProt P43586 19-38)", "T3 chain": "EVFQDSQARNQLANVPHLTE", "assay": "peptide array; EMSA: 20 mM HEPES pH 7.8, 200 mM NaCl, 2 mM MgCl2, 2 mM DTT, 4% glycerol, 25 C, 5 nM RNA, 100 ug/ml tRNA (omitted in competition); NMR: 20 mM Na phosphate pH 7.4, 50 mM NaCl, 278 K", "conditions": "tags: array-immobilized; label: radioactive"}, "[7]": {"target": "Loc1p array peptide B5 (Saccharomyces cerevisiae, UniProt P43586 73-92)", "assay": "peptide array; EMSA: 20 mM HEPES pH 7.8, 200 mM NaCl, 2 mM MgCl2, 2 mM DTT, 4% glycerol, 25 C, 5 nM RNA, 100 ug/ml tRNA (omitted in competition); NMR: 20 mM Na phosphate pH 7.4, 50 mM NaCl, 278 K", "conditions": "tags: array-immobilized; label: radioactive"}, "[8]": {"target": "Loc1p array peptide A15 (Saccharomyces cerevisiae, UniProt P43586 43-62)", "assay": "peptide array; EMSA: 20 mM HEPES pH 7.8, 200 mM NaCl, 2 mM MgCl2, 2 mM DTT, 4% glycerol, 25 C, 5 nM RNA, 100 ug/ml tRNA (omitted in competition); NMR: 20 mM Na phosphate pH 7.4, 50 mM NaCl, 278 K", "conditions": "tags: array-immobilized; label: radioactive"}, "[9]": {"target": "Loc1p array peptide B7 (Saccharomyces cerevisiae, UniProt P43586 79-98)", "assay": "peptide array; EMSA: 20 mM HEPES pH 7.8, 200 mM NaCl, 2 mM MgCl2, 2 mM DTT, 4% glycerol, 25 C, 5 nM RNA, 100 ug/ml tRNA (omitted in competition); NMR: 20 mM Na phosphate pH 7.4, 50 mM NaCl, 278 K", "conditions": "tags: array-immobilized; label: radioactive"}, "[10]": {"target": "T4, Loc1p array peptide A11 (Saccharomyces cerevisiae, UniProt P43586 31-50)", "T4 chain": "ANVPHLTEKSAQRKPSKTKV", "assay": "peptide array; EMSA: 20 mM HEPES pH 7.8, 200 mM NaCl, 2 mM MgCl2, 2 mM DTT, 4% glycerol, 25 C, 5 nM RNA, 100 ug/ml tRNA (omitted in competition); NMR: 20 mM Na phosphate pH 7.4, 50 mM NaCl, 278 K", "conditions": "tags: array-immobilized; label: radioactive"}, "[11]": {"target": "T5, Loc1p array peptide A10 (Saccharomyces cerevisiae, UniProt P43586 28-47)", "T5 chain": "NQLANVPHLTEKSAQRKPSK", "assay": "peptide array; EMSA: 20 mM HEPES pH 7.8, 200 mM NaCl, 2 mM MgCl2, 2 mM DTT, 4% glycerol, 25 C, 5 nM RNA, 100 ug/ml tRNA (omitted in competition); NMR: 20 mM Na phosphate pH 7.4, 50 mM NaCl, 278 K", "conditions": "tags: array-immobilized; label: radioactive"}, "[12]": {"target": "Loc1p array peptide B6 (Saccharomyces cerevisiae, UniProt P43586 76-95)", "assay": "peptide array; EMSA: 20 mM HEPES pH 7.8, 200 mM NaCl, 2 mM MgCl2, 2 mM DTT, 4% glycerol, 25 C, 5 nM RNA, 100 ug/ml tRNA (omitted in competition); NMR: 20 mM Na phosphate pH 7.4, 50 mM NaCl, 278 K", "conditions": "tags: array-immobilized; label: radioactive"}, "[13]": {"target": "Loc1p array peptide A14 (Saccharomyces cerevisiae, UniProt P43586 40-59)", "assay": "peptide array; EMSA: 20 mM HEPES pH 7.8, 200 mM NaCl, 2 mM MgCl2, 2 mM DTT, 4% glycerol, 25 C, 5 nM RNA, 100 ug/ml tRNA (omitted in competition); NMR: 20 mM Na phosphate pH 7.4, 50 mM NaCl, 278 K", "conditions": "tags: array-immobilized; label: radioactive"}, "[14]": {"target": "T6, Loc1p array peptide B19 (Saccharomyces cerevisiae, UniProt P43586 115-134)", "T6 chain": "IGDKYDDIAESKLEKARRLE", "assay": "peptide array; EMSA: 20 mM HEPES pH 7.8, 200 mM NaCl, 2 mM MgCl2, 2 mM DTT, 4% glycerol, 25 C, 5 nM RNA, 100 ug/ml tRNA (omitted in competition); NMR: 20 mM Na phosphate pH 7.4, 50 mM NaCl, 278 K", "conditions": "tags: array-immobilized; label: radioactive"}, "[15]": {"target": "Loc1p array peptide B8 (Saccharomyces cerevisiae, UniProt P43586 82-101)", "assay": "peptide array; EMSA: 20 mM HEPES pH 7.8, 200 mM NaCl, 2 mM MgCl2, 2 mM DTT, 4% glycerol, 25 C, 5 nM RNA, 100 ug/ml tRNA (omitted in competition); NMR: 20 mM Na phosphate pH 7.4, 50 mM NaCl, 278 K", "conditions": "tags: array-immobilized; label: radioactive"}, "[16]": {"target": "T7, Loc1p array peptide A9 (Saccharomyces cerevisiae, UniProt P43586 25-44)", "T7 chain": "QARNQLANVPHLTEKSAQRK", "assay": "peptide array; EMSA: 20 mM HEPES pH 7.8, 200 mM NaCl, 2 mM MgCl2, 2 mM DTT, 4% glycerol, 25 C, 5 nM RNA, 100 ug/ml tRNA (omitted in competition); NMR: 20 mM Na phosphate pH 7.4, 50 mM NaCl, 278 K", "conditions": "tags: array-immobilized; label: radioactive"}, "[17]": {"target": "Loc1p array peptide C15 (Saccharomyces cerevisiae, UniProt P43586 163-182)", "assay": "peptide array; EMSA: 20 mM HEPES pH 7.8, 200 mM NaCl, 2 mM MgCl2, 2 mM DTT, 4% glycerol, 25 C, 5 nM RNA, 100 ug/ml tRNA (omitted in competition); NMR: 20 mM Na phosphate pH 7.4, 50 mM NaCl, 278 K", "conditions": "tags: array-immobilized; label: radioactive"}, "[18]": {"target": "T1, MBP-Loc1p", "assay": "competition; vs labeled ASH1 E3; 10-500x; EMSA: 20 mM HEPES pH 7.8, 200 mM NaCl, 2 mM MgCl2, 2 mM DTT, 4% glycerol, 25 C, 5 nM RNA, 100 ug/ml tRNA (omitted in competition); NMR: 20 mM Na phosphate pH 7.4, 50 mM NaCl, 278 K", "conditions": "protein: recombinant; tags: MBP; hairpin"}, "[19]": {"target": "Loc1p (Saccharomyces cerevisiae, UniProt P43586 1-204)", "assay": "EMSA; nanomolar range; 100 ug/ml yeast tRNA; EMSA: 20 mM HEPES pH 7.8, 200 mM NaCl, 2 mM MgCl2, 2 mM DTT, 4% glycerol, 25 C, 5 nM RNA, 100 ug/ml tRNA (omitted in competition); NMR: 20 mM Na phosphate pH 7.4, 50 mM NaCl, 278 K", "conditions": "protein: recombinant; hairpin"}, "[20]": {"target": "T8, Loc1p (3-15) (Saccharomyces cerevisiae, UniProt P43586 3-15)", "T8 chain": "PKKPSKRQNLRRE", "assay": "NMR (1H-15N HSQC titration); range over peptide signals; EMSA: 20 mM HEPES pH 7.8, 200 mM NaCl, 2 mM MgCl2, 2 mM DTT, 4% glycerol, 25 C, 5 nM RNA, 100 ug/ml tRNA (omitted in competition); NMR: 20 mM Na phosphate pH 7.4, 50 mM NaCl, 278 K", "conditions": "protein: recombinant; tags: GST removed by thrombin (15N,13C sample); hairpin, 11 bp stem, GAAA loop"}}, "data": [{"binder": "poly-A60 (ssRNA) RNA: AAAAAAAAAAAAAAAAAAAAAAAAAAAAAAAAAAAAAAAAAAAAAAAAAAAAAAAAAAAA", "values": [{"measurement": "binding result", "setting": "[1]", "value": "binds"}, {"measurement": "binding result", "setting": "[2]", "value": "binds"}, {"measurement": "binding result", "setting": "[3]", "value": "binds"}]}, {"binder": "CGAAGAUGAAAAUGAUCACGAGAGAGAUCCCGAACAAUUUUCAGAAUUUG (ssRNA)", "note": "[EAR1 LE]", "values": [{"measurement": "binding result", "setting": "[2]", "value": "binds"}, {"measurement": "binding result", "setting": "[4]", "value": "binds"}]}, {"binder": "AAAAAAAAAAAAAAAAAAAAA (ssDNA)", "note": "[Cy3-A(21) ssDNA]", "values": [{"measurement": "binding result", "setting": "[5]", "value": "binds"}]}, {"binder": "ASH1 E3 (short) (structured_RNA) RNA: AUGGAUAACUGAAUCUCUUUCAACUAAUAAGAGACAUUAUCACGAAACAAU", "values": [{"measurement": "binding result", "setting": "[6]", "value": "no binding"}, {"measurement": "binding result", "setting": "[7]", "value": "binds"}, {"measurement": "binding result", "setting": "[8]", "value": "binds"}, {"measurement": "binding result", "setting": "[9]", "value": "binds"}, {"measurement": "binding result", "setting": "[10]", "value": "binds"}, {"measurement": "binding result", "setting": "[11]", "value": "binds"}, {"measurement": "binding result", "setting": "[12]", "value": "binds"}, {"measurement": "binding result", "setting": "[13]", "value": "binds"}, {"measurement": "binding result", "setting": "[14]", "value": "no binding"}, {"measurement": "binding result", "setting": "[15]", "value": "binds"}, {"measurement": "binding result", "setting": "[16]", "value": "binds"}, {"measurement": "binding result", "setting": "[17]", "value": "binds"}]}, {"binder": "HIV TAR-57 (structured_RNA) RNA: GGUCUCUCUGGUUAGACCAGAUCUGAGCCUGGGAGCUCUCUGGCUAACUAGGGAACC", "values": [{"measurement": "binding result", "setting": "[18]", "value": "binds"}, {"measurement": "binding result", "setting": "[19]", "value": "binds"}]}, {"binder": "UCUCUGGUUAGGAAACUAACUAGGGA (structured_RNA)", "note": "[dsRNA tetraloop]", "values": [{"measurement": "Kd", "setting": "[20]", "value": "~73.7", "unit": "µM"}]}]}
